Experimental data taken from patent US20060233706A1, “Marked peptides having affinity for a phospholipid and uses” (COMMISSARIAT A L'ENERGIE, priority 2002, published 2006).

Columns and labels:
[1] = prior art observation; cited from earlier work
[2] = Labelling of the kidney in the same rats (fluorescence microscopy of kidney sections); assay type: in vivo; settings: 200 μg into the jugular vein, 60 minutes, labelling linked to partial elimination of the products
Protocol: Briefly, four rats (300 g each) were anaesthetized, intubated and ventilated. Myocardial ischaemia was triggered by a transient occlusion of the coronary artery. After 30 minutes of occlusion, the coronary artery was reperfused for one hour.
At the end of the reperfusion period, the AFIM-fluorescein peptides of Example 6 were injected into the jugular vein in an amount of 200 μg of peptide for each of two of the rats in a total volume of 1 ml.
By way of comparison, 200 μg of annexin 5-fluorescein (compounds of the prior art) were injected under the same conditions for each of the other two rats in a total volume of 1 ml.
The rats were sacrificed after 60 minutes.
Five organs were stored for this study: the heart, the lung, the kidney, the liver and the brain. They were washed and rinsed in the presence of formalin. […]
A few sections were stained with haematoxylin. The sections were examined under a fluorescence microscope and the adjacent sections stained with haematoxylin were examined with a visible light microscope. The sections stained with haematoxylin (labelled H1 and H2 respectively in the appended FIGS. 1 and 2) allow visualisation of the architecture of the tissues and fluorescence microscopy to detect the labelling with AFIM-fluorescein (AFIM-F) or with annexin 5-fluorescein (A5-F).

What does the source list for “annexin 5: prior art annexin protein that binds anionic phospholipids in a calcium-dependent manner”?
Toxicity [1]: renal toxicity; Labelling of the entire renal tissue [2]: strongly labelled
